Assay results published in article PMC7594496.
Each block holds one substance with its values, some of them ahead of it.

Experiments:
Assay in all cases: liposome recruitment assay (liposome flotation, gel band quantification)
[1] = target: Sec23–Sec24 complex (WT), P15303;P40482; conditions: GMP-PNP, 400 nm unilamellar liposomes, read off a plot
Sar1 = Sar1 (UniProt P20606); conditions: GMP-PNP; 400 nm unilamellar liposomes; parent: est. 0.98; read off a plot
[2] = target: Sec13–Sec31 complex (WT), Q04491;P38968; conditions: GMP-PNP; 400 nm unilamellar liposomes; parent: est. 1.1; read off a plot

Chain of Sar1 (P20606 whole entry): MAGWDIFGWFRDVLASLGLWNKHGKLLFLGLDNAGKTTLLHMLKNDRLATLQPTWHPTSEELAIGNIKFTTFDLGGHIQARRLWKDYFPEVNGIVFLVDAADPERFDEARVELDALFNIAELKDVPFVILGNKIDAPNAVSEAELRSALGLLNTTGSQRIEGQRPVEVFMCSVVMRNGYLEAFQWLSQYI
Chain of Sec23–Sec24 complex (WT) (P15303 whole entry, stated change not applied, the tested form may be a part): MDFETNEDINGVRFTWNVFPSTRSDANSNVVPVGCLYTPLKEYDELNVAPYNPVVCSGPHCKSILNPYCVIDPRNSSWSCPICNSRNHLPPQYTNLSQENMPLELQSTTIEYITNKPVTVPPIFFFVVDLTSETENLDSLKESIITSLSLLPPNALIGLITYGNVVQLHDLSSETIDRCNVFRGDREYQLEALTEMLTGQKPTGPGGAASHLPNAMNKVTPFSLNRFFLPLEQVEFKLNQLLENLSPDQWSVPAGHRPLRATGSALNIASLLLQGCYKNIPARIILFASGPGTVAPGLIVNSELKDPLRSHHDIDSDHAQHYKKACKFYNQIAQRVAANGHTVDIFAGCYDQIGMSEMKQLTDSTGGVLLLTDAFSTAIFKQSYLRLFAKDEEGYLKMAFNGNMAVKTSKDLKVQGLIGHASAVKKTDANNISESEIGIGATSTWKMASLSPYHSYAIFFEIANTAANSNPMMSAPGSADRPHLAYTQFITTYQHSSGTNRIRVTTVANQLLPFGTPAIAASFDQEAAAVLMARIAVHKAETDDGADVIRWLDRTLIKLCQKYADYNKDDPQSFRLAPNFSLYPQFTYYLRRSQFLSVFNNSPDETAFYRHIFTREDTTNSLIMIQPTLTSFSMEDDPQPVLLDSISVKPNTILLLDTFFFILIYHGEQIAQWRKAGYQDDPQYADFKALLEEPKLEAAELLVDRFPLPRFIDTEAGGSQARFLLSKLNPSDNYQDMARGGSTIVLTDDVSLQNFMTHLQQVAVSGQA
Chain of Sec23–Sec24 complex (WT) (P40482 whole entry, stated change not applied, the tested form may be a part): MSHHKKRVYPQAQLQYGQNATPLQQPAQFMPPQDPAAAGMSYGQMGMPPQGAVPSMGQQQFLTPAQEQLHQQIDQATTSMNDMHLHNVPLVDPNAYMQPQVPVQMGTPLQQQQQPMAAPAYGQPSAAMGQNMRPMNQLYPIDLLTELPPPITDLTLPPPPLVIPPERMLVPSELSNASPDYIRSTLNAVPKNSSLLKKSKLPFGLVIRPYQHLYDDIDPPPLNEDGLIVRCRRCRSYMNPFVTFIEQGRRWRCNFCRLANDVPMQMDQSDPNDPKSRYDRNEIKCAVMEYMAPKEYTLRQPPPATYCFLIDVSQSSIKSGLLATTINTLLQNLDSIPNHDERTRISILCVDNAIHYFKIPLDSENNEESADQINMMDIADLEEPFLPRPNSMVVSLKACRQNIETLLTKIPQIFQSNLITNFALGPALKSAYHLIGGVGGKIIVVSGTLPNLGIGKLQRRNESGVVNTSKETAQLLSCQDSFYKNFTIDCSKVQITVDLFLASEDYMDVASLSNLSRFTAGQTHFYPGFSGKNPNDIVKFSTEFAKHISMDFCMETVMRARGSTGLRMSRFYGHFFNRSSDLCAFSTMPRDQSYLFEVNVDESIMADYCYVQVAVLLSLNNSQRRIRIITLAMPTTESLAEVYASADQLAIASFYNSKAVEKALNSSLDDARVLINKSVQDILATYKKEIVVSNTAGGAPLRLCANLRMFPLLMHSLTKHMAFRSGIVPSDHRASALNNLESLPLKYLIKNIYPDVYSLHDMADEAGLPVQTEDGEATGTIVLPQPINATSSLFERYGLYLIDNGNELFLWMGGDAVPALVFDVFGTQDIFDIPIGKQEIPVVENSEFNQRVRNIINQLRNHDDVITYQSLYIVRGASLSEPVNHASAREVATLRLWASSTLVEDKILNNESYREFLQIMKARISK
Chain of Sec13–Sec31 complex (WT) (Q04491 whole entry, stated change not applied): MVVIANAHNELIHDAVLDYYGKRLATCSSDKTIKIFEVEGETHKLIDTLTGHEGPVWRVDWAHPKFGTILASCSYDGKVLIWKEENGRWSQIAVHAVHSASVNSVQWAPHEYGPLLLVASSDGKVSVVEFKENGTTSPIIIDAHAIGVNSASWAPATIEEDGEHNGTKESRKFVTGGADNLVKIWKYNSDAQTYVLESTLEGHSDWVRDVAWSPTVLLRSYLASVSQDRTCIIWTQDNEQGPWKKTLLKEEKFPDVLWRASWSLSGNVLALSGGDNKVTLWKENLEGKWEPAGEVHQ
Chain of Sec13–Sec31 complex (WT) (P38968 whole entry, stated change not applied): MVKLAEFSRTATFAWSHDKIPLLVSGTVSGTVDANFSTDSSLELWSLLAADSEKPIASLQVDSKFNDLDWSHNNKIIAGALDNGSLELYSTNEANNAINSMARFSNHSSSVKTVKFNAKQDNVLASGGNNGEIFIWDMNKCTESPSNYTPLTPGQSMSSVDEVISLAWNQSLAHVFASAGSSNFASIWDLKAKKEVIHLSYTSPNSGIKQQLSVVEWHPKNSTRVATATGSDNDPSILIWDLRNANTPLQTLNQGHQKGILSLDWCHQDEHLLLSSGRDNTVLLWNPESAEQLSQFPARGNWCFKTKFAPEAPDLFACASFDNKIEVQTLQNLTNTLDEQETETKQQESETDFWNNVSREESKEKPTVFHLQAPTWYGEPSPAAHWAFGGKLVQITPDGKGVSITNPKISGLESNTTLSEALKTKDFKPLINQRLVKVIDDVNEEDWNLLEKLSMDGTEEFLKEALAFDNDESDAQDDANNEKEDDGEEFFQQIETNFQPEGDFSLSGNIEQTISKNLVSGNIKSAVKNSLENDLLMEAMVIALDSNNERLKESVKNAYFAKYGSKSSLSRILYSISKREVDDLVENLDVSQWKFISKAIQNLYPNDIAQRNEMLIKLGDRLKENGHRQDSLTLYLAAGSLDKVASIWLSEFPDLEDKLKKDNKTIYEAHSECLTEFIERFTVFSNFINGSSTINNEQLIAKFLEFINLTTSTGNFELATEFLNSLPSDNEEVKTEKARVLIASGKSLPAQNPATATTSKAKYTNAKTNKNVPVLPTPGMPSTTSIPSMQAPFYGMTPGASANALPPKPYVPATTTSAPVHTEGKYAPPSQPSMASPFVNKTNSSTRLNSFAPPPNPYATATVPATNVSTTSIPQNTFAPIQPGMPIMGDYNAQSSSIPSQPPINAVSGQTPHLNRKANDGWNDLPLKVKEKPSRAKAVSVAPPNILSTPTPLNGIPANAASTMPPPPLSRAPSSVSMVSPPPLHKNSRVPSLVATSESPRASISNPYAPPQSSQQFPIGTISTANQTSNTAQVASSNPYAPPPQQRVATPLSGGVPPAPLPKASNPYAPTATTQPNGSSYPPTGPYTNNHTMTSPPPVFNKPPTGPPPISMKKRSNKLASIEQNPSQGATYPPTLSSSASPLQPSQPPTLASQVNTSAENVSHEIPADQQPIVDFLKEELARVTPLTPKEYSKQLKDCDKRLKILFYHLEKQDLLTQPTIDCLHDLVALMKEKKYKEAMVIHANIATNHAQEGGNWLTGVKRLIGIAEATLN
Chain of Sec13–Nhis-Sec31 complex (Q04491 whole entry, stated change not applied): as the sequence (Q04491 whole entry, stated change not applied) above
Chain of Sec13–Nhis-Sec31 complex (P38968 whole entry, stated change not applied): as the sequence (P38968 whole entry, stated change not applied) above

other: Ratio Sec31:Sec23 ([1]; parent: est. 0.91): 0.91
Substance: Sec13–Nhis-Sec31 complex (from UniProt Q04491;P38968) ΔPPP (glycine/serine substitution of all six PPP motifs plus an additional PPAP motif; residues not printed)

other: Protein ratio Sec23:Sar1 (Sar1): 1.1
other: Protein ratio Sec31:Sec23 [2]: 0.43
Substance: Sec23–Sec24 complex (WT) (from UniProt P15303;P40482) Δcharge (charge reversal of a negatively charged surface adjacent to the gelsolin domain of Sec23; residues not printed)

other: Ratio Sec31:Sec23 ([1]; parent: est. 1.1): 1.2
Substance: Sec13–Sec31 complex (WT) (from UniProt Q04491;P38968) ΔPPP (glycine/serine substitution of all six PPP motifs plus an additional PPAP motif; residues not printed)
